Measured values published in article PMC5340008 (BMC Biochemistry, 2017).

Target: Bacillus anthracis Bla1 β-lactamase (Bacillus anthracis)

Sequence of BLIP [change] (P35804 37-201 Y86A): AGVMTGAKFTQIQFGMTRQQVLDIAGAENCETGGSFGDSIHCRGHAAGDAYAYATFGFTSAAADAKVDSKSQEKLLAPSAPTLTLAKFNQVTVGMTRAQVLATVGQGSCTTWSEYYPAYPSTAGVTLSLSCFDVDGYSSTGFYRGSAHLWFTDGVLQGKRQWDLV

## BLIP [change] (from UniProt P35804 37-201) (natural protein)
  Ki: 1.2 nM
